This assay has as its target T1, mutant LEPR-A409E (Homo sapiens, UniProt P48357, A409E).
T1 construct: expressed in transfected cells; host or cells: HEK293
T1 sequence (P48357 22-1165 A409E): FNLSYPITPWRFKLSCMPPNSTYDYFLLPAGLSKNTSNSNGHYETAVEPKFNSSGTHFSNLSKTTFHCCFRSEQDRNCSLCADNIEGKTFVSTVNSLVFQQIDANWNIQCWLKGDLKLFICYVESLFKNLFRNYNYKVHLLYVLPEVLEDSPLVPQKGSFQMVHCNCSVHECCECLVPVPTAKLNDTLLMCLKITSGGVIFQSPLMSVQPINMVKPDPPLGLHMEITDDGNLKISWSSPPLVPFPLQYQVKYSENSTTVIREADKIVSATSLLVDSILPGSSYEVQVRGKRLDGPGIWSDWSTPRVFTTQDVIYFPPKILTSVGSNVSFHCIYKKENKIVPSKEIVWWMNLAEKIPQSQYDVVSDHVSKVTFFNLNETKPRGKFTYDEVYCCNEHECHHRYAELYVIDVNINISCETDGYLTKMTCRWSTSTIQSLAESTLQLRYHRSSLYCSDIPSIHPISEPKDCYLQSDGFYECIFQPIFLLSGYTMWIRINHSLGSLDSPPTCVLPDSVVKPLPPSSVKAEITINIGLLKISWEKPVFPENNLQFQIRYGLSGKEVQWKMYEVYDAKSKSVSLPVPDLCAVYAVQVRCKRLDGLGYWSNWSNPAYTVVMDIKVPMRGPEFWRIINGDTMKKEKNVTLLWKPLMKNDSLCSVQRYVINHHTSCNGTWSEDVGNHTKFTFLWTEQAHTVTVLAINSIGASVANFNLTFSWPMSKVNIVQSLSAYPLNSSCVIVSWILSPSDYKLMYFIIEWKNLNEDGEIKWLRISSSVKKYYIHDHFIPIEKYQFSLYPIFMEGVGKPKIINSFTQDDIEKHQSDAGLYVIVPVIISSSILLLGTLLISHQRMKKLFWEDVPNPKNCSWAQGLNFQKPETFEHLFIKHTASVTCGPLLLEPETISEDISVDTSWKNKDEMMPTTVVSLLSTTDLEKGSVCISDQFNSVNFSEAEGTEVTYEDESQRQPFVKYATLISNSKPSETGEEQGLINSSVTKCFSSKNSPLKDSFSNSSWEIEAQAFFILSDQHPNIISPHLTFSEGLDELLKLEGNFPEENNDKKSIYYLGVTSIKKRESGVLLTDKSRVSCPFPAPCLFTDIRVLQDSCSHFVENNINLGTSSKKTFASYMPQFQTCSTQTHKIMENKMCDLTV
The experiment in a line: STAT3-Luciferase reporter assay in HEK293 cells that express hLEPR-A409E. The format is cell-based. The procedure:
Missense mutation A409E in LEPR gene was associated with autosomal recessive early onset of obesity in human (Farooqi et al., 2007, N Engl J Med 356 (3): 237-247). […] To test whether the anti-LEPR antibodies can activate these mutant human LEPR receptors, the STAT3-Luciferase reporter assay was established using HEK293 cells that express hLEPR-A409E. These cells were cultured in growth medium DMEM/F12 (Gibco, #12430-054), 10% fetal bovine serum (FBS, Gibco, #10082-147), antibiotics (Gibco, #15240-062), Sodium Pyruvate (Gibco, #11360-070) and GlutaMax supplement (Gibco, #35050-061) in the presence of drug selection 250 μg/mL of Hygromycin (Invitrogen, #10687010) and 800 μg/mL of Geneticin (Corning, #30-234-C1).
Before plating the cells for luciferase assays, the poly-D-Lysine coated 96-well plates (Corning Inc, Bio Coat, #354651, Poly-D-Lysing coated) were rinsed once with phosphate buffered solution (PBS) and once by plating medium. Then, 20,000 to 24,000 STAT3-Luciferase reporter cells were seeded onto the poly-D-lysine 96-well plates in 100 μL/well plating medium consist of DMEM/F12 (3:1, Gibco, #93-0152DK), 10% fetal bovine serum (FBS, Gibco, #10082-147), 1x GlutaMax supplement (Gibco, #35050061) 20 mM HEPES (Gibco, #15630-080) and antibiotics (Gibco, 15240-062). After overnight culture at 37°° C. with 5% CO2, the culture medium was changed to 75 μL assay medium containing OPTI-MEM (Gibco, #31985-070) with 1% BSA (BSA Fraction V (7.5%), Gibco, #15260-037), 0.1% dialyzed fetal bovine serum (FBS, Gibco, #26400-044) for 1 hour at 37° C. with 5% CO2. Test articles were diluted into 25 μL assay medium and were added to each well. Cells were further incubated for 20 hours at 37° C. with 5% CO2. Cell lysing and One-Glo luciferase substrate solution (Promega, #E6120) were then added to each well, and relative luciferase units (RLUs) were measured on a ClarioStar plate reader. The concentration response curves were then plotted as raw RLU readings to the function of log drug concentrations. EC50 was calculated using GraphPad Prism software.

Marks after values point to notes of the source that are not given here.

Turning to “human leptin: recombinant human leptin protein (SEQ ID NO:27), positive control”, under “LEPR-A409E STAT3-luciferase”, the “Bottom (RLU)” value is 451.8 RLU and the “Hill Slope” value was 0.2011. Besides, under “LEPR-A409E, top of curve projected by GraphPad Prism software”, the “Top (RLU)” value is 259289* RLU. For the same substance, under “STAT3-luciferase”, the “activation of LEPR-A409E” value is recorded as “did not activate”.

These data come from patent US20250289897A1, “LEPTIN RECEPTOR AGONISTIC ANTIBODY AS MONO OR COMBO THERAPIES TO TREAT OBESITY” (ELI LILLY AND COMPANY, priority 2024, published 2025).
